According to the supplement of paper PMC12764529:
± gives the half width of the 95% confidence interval.

Assay: folding stability dG unfold from chymotrypsin proteolysis; higher = more stable
Method in brief: (§1)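 How resistant each design was to proteolysis was captured as K50, inferred by Bayesian fitting of sequencing counts. Unfolding free energy was then derived relative to a sequence-predicted unfolded-state K50 and a shared folded-state K50, per protease or combined. Digestion used trypsin and chymotrypsin at 11 threefold-diluted concentrations plus a no-protease condition, on mini-proteins under 80 residues without cysteine in a PA-tagged cDNA display construct. Designs were kept only when AlphaFold2 dimer inter-PAE was above 15.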

Row | Sequence | folding stability dG unfold
1 | SAGKPRPVEIDFPMPPGFPNMPPEEMANMIARELDENGLKIEPKNMNPGEPYVRYTVEVNGKPILEITFSAG [r5_80_TrROS] | 1.51 ± 0.12 kcal/mol
2 | SAGGSAGGSAGVRDPDNGEPMPPGDWVIRHRDNEKPHHFLIPPNNAEEFAEDNGIEIHKVSAGGSAGGSAGG [r17_109_TrROS] | 1.24 ± 0.14 kcal/mol
3 | SAGGSAGGSAGGWDVEIEPFPDGFIFITAEGPNGRKLVIVVMVVPEGKLMYMIVPLDDLSAGGSAGGSAGGS [r10_140_TrROS] | 3.71 ± 0.097 kcal/mol
4 | ETIYLSSSNPEEVIKALKEAASKGKTVVVEANPEFFKEFIAQGFKVEKILKIEPIPGGDGYRAEIKISPGGS [r1_173_TrMRF] | 1.95 ± 0.063 kcal/mol
5 | FKFKITELSFNPEWGYIHFNVKVEGPDGQPQTFPIMIRIRIPPPPPPPPPPMRADPDGKVRNPDDGKEHDAS [r1_270_TrROS] | 4.9 ± 0.27 kcal/mol
6 | SAGGSAGGSAGGMEIREVEVTFVPPDGTTTTRKVLATSEEEAKAILEEELPPDWEIILRSAGGSAGGSAGGS [r10_145_JUSTAS] | 0.831 ± 0.034 kcal/mol
7 | SAGGSAGGMEEIEIEINGKKAKIYRLPGDEDLFLIEVDGELYLVKVKKKDGKWEIVEVKKLDELSAGGSAGG [r6_915_TrROS_Hall] | 4.25 ± 0.091 kcal/mol
8 | SAGGSAGGSAGKIKIKNEDGSEYEVKKIEITIKNENGEKKKIKLEIELPKAKEVKIEKKKSAGGSAGGSAGG [r11_804_TrROS_Hall] | 0.32 ± 0.087 kcal/mol
9 | SAGGDEDDWRPIEIPLYIRNPENGHLFQITPMKIWVPDNLTIEMEMEMFDPDDGKVEKHKMTFTIPAKSAGG [r13_206_TrROS] | 2.09 ± 0.21 kcal/mol
10 | SAGGSASPAVSSEEEVEALVEELRKKGYEVLSVERTEIPGEDVTDYTIPIRDPSNGKLSTLTLTAGSAGGSA [r15_123_JUSTAS] | 0.538 ± 0.15 kcal/mol
11 | SAGGSSMYKTTTTPLSTFPVRDENGNFLEETKFEKTTVTYPDGSTVTVLKIEVGGKTFTLEVTPTPSAGGSA [r2_158_JUSTAS] | 0.952 ± 0.18 kcal/mol
12 | SAGGSADPDDKEQKIKVEIETYRLEDNGMEVTRIELEGHGMPIYIARFPDGRMFIFTANGELEQIPSAGGSA [r15_617_TrROS] | 2.71 ± 0.059 kcal/mol
13 | SAGGSAGGMEEIVLPIPEEVAKELIASGTVTKTQTEGNRTILTKTPPSGGSTKITVVLPPSYPSSAGGSAGG [r6_654_JUSTAS] | 1.24 ± 0.1 kcal/mol
14 | SAGGSAGGSAGGMTIVIVVPAENLTPEEIAELLREAGYEVTVERREDGYLVVTVRLPEPSAGGSAGGSAGGS [r10_1254_TrROS_Hall] | 3.08 ± 0.052 kcal/mol
15 | SAGELAEKLAEELRKLFPNAEVEVEVVEVKEDYVVVKIRLRVVDEETGEEKTVEVELTLVLKPGEILPSAGG [r19_8_TrROS_Hall] | 4.66 ± 0.44 kcal/mol
16 | SAGGMTKTVTVTIEIDVPPGVTVDELIEKLKELAEKLGLTVKVTSVTVEEVDGKLVVTVEVEIEPPEPSAGG [r13_351_TrROS_Hall] | 2.6 ± 0.18 kcal/mol
17 | SAGSSTPGSEVVRVTSEVSEGESNRTVSYTTYVFEPGGPALRPLSTSTTTVPAAPGVPEGGTKTISLPGSAG [r5_861_JUSTAS] | -0.755 ± 0.2 kcal/mol

Assay: folding stability dG unfold from trypsin proteolysis; higher = more stable
Method in brief: as §1

Row | Sequence | folding stability dG unfold
18 | SAGKPRPVEIDFPMPPGFPNMPPEEMANMIARELDENGLKIEPKNMNPGEPYVRYTVEVNGKPILEITFSAG [r5_80_TrROS] | 0.762 ± 0.081 kcal/mol
19 | SAGGSAGGSAGVRDPDNGEPMPPGDWVIRHRDNEKPHHFLIPPNNAEEFAEDNGIEIHKVSAGGSAGGSAGG [r17_109_TrROS] | 1.42 ± 0.23 kcal/mol
20 | SAGGSAGGSAGGWDVEIEPFPDGFIFITAEGPNGRKLVIVVMVVPEGKLMYMIVPLDDLSAGGSAGGSAGGS [r10_140_TrROS] | 2.35 ± 0.095 kcal/mol
21 | ETIYLSSSNPEEVIKALKEAASKGKTVVVEANPEFFKEFIAQGFKVEKILKIEPIPGGDGYRAEIKISPGGS [r1_173_TrMRF] | 1.64 ± 0.082 kcal/mol
22 | FKFKITELSFNPEWGYIHFNVKVEGPDGQPQTFPIMIRIRIPPPPPPPPPPMRADPDGKVRNPDDGKEHDAS [r1_270_TrROS] | 3.3 ± 0.1 kcal/mol
23 | SAGGSAGGSAGGMEIREVEVTFVPPDGTTTTRKVLATSEEEAKAILEEELPPDWEIILRSAGGSAGGSAGGS [r10_145_JUSTAS] | -0.122 ± 0.11 kcal/mol
24 | SAGGSAGGMEEIEIEINGKKAKIYRLPGDEDLFLIEVDGELYLVKVKKKDGKWEIVEVKKLDELSAGGSAGG [r6_915_TrROS_Hall] | 4.17 ± 0.29 kcal/mol
25 | SAGGSAGGSAGKIKIKNEDGSEYEVKKIEITIKNENGEKKKIKLEIELPKAKEVKIEKKKSAGGSAGGSAGG [r11_804_TrROS_Hall] | -1.2 ± 0.83 kcal/mol
